Experimental findings from paper PMC12813162 are described below.

For this test, the target named is phospholipase B D2. The test is described as follows: IP-MS (UBQLN2 immunoprecipitation, mass spectrometry). As to conditions: iMNs; read off a plot.

In turn, “Ubiquilin-2, wild type (from UniProt Q9UHD9) P497H; P506T; P509S; P525S” came in with an other: Student's T-test Difference of 0.47.
